# Measured values taken from patent US20250115886A1 (University of Pennsylvania, published 2025).
# T1: RGG-SZ2 (Caenorhabditis elegans)
# T1 construct: Purified from E. coli; also called single RGG domain tagged with SZ2
# T1 chain: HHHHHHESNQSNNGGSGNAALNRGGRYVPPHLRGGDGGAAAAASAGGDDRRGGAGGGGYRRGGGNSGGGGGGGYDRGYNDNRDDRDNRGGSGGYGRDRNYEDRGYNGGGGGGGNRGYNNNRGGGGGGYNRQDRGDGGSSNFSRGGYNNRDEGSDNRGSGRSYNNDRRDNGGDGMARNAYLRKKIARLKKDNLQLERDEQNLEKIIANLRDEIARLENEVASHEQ
# B1: Cdc24-mScarlet-TsCC(B) (other, not shown: large carriers)
# chain: MAIQTRFASGTSLSDLKPKPSATSISIPMQNVMNKPVTEQDSLFHICANIRKRLEVLPQLKPFLQLAYQSSEVLSERQSLLLSQKQHQELLKSNGANRDSSDLAPTLRSSSISTATSLMSMEGISYTNSNPSATPNMEDTLLTFSMGILPITMDCDPVTQLSQLFQQGAPLCILFNSVKPQFKLPVIASDDLKVCKKSIYDFILGCKKHFAFNDEELFTISDVFANSTSQLVKVLEVVETLMNSSPTIFPSKSKTQQIMNAENQHRHQPQQSSKKHNEYVKIIKEFVATERKYVHDLEILDKYRQQLLDSNLITSEELYMLFPNLGDAIDFQRRFLISLEINALVEPSKQRIGALFMHSKHFFKLYEPWSIGQNAAIEFLSSTLHKMRVDESQRFIINNKLELQSFLYKPVQRLCRYPLLVKELLAESSDDNNTKELEAALDISKNIARSINENQRRTENHQVVKKLYGRVVNWKGYRISKFGELLYFDKVFISTTNSSSEPEREFEVYLFEKIIILFSEVVTKKSASSLILKKKSSTSASISASNITDNNGSPHHSYHKRHSNSSSSNNIHLSSSSAAAIIHSSTNSSDNNSNNSSSSSLFKLSANEPKLDLRGRIMIMNLNQIIPQNNRSLNITWESIKEQGNFLLKFKNEETRDNWSSCLQQLIHDLKNEQFKARHHSSTSTTSSTAKSSSMMSPTTTMNTPNHHNSRQTHDSMASFSSSHMKRVSDVLPKRRTTSSSFESEIKSISENFKNSIPESSILFRISYNNNSNNTSSSEIFTLLVEKVWNFDDLIMAINSKISNTHNNNISPITKIKYQDEDGDFVVLGSDEDWNVAKEMLAENNEKFLNIRLYVEVAEEVKAVSAALSERITQLATELNDKAVRAAERRVAEVTRAAGEQTAQAERELADAAQTVDDLEEKLVELQDRYDSLTLALESERSLRQQHDVEMAQLKERLAAAEENTRQEEERYQEQKTVLQDALNAEQAQHKNTREDLQKRLEQISVEANARTEELKSERDKVNTFLTRLESQENALASEEQQHLATRETLQQRLEQAIADTQARAGEIALERDRVSSLTARLESQEKASSEQLVRMGSEIASLTERCTQLENQRDDARLETMGEKETVAALRGEAEALKRQNQSLMAALSGNKQTGGQNA
# B2: SZ1-RGG (other)
# chain: HHHHHHMNLVAQLENEVASLENENETLKKKNLHKKDLIAYLEKEIANLRKKIEEESNQSNNGGSGNAALNRGGRYVPPHLRGGDGGAAAAASAGGDDRRGGAGGGGYRRGGGNSGGGGGGGYDRGYNDNRDDRDNRGGSGGYGRDRNYEDRGYNGGGGGGGNRGYNNNRGGGGGGYNRQDRGDGGSSNFSRGGYNNRDEGSDNRGSGRSYNNDRRDNGGDG
# notes: Purified from E. coli; also called single RGG domain tagged with SZ1
# B3: (RGG)3 condensates that lack the interaction tag (other)
# chain: ESNQSNNGGSGNAALNRGGRYVPPHLRGGDGGAAAAASAGGDDRRGGAGGGGYRRGGGNSGGGGGGGYDRGYNDNRDDRDNRGGSGGYGRDRNYEDRGYNGGGGGGGNRGYNNNRGGGGGGYNRQDRGDGGSSNFSRGGYNNRDEGSDNRGSGRSYNNDRRDNGGDGESNQSNNGGSGNAALNRGGRYVPPHLRGGDGGAAAAASAGGDDRRGGAGGGGYRRGGGNSGGGGGGGYDRGYNDNRDDRDNRGGSGGYGRDRNYEDRGYNGGGGGGGNRGYNNNRGGGGGGYNRQDRGDGGSSNFSRGGYNNRDEGSDNRGSGRSYNNDRRDNGGDGESNQSNNGGSGNAALNRGGRYVPPHLRGGDGGAAAAASAGGDDRRGGAGGGGYRRGGGNSGGGGGGGYDRGYNDNRDDRDNRGGSGGYGRDRNYEDRGYNGGGGGGGNRGYNNNRGGGGGGYNRQDRGDGGSSNFSRGGYNNRDEGSDNRGSGRSYNNDRRDNGGDG
# notes: Control scaffold without coiled-coil tag; The other scaffolds carry GFP; also called control scaffolds that lack the cognate coiled-coil tag
# Experiments:
# [1] = biological target: TsCC(A)-(RGG)3-GFP scaffold (Caenorhabditis elegans); assay: cell-based or functional assay
# RGG-SZ2 = biological target: T1, RGG-SZ2; assay: fluorescence microscopy of purified proteins, 4 µM
# Cdc24-mScarlet-TsCC(B) = biological target: B1; assay: fluorescence microscopy of client localization in yeast
binder,measurement,setting,value
B1,fold decrease in rate of cell proliferation in liquid culture,[1],~12 fold
B2,binding result,RGG-SZ2,binds
B3,binding result,Cdc24-mScarlet-TsCC(B),no binding
